Test results from patent US20110286970A1.

Tests used:
[1] = target: wild type human α-synuclein (human) (UniProt P37840); assay: cell-based or functional assay
[2] = target: 12 amino acid fragment corresponding to amino acids 71-82 of human α-synuclein (human); assay: cell-based or functional assay

Q: Which ELISA of α-synuclein oligomers in the insoluble fraction of SH-SY5Y cells [1] does the source give for “M13 filamentous phage (wild-type, prepared with M13K07 helper phage)” here?
A: 40 to 50 % reduction

Q: What about the Thioflavine T (Tht) fluorescence emission at 480 nm of the pre-aggregated peptide [2] of the same substance?
A: 43 % reduction
